From patent US11224632B2 (priority 2016, dated 2022)
Entries after “also recorded” stand apart in the source; their conditions may differ. Where no end group is shown, it is not given here. [ ]: non-standard residue; d: D form.

Experiments:
CaV2.2 channel = CaV2.2 channel (Homo sapiens, UniProt Q00975); format: cell-based
CaV1.2 channel = molecular target: T1, CaV1.2 channel (Oryctolagus cuniculus, UniProt P15381); test: whole cell patch clamp of CaV1.2-mediated ion currents in tsA201 cells co-expressing CaV1.2 and CaVbeta2e; format: cell-based, rabbit; conditions: 150 nM peptide
T1 construct: The coding regions of the two different alpha1 pore-forming units (CaValpha1) of the voltage-dependent calcium channel were fused in frame; expressed in transfected cells; host or cells: tsA201 cells, transient co-transfection
T1 sequence (P15381 whole entry, the tested form may be a part): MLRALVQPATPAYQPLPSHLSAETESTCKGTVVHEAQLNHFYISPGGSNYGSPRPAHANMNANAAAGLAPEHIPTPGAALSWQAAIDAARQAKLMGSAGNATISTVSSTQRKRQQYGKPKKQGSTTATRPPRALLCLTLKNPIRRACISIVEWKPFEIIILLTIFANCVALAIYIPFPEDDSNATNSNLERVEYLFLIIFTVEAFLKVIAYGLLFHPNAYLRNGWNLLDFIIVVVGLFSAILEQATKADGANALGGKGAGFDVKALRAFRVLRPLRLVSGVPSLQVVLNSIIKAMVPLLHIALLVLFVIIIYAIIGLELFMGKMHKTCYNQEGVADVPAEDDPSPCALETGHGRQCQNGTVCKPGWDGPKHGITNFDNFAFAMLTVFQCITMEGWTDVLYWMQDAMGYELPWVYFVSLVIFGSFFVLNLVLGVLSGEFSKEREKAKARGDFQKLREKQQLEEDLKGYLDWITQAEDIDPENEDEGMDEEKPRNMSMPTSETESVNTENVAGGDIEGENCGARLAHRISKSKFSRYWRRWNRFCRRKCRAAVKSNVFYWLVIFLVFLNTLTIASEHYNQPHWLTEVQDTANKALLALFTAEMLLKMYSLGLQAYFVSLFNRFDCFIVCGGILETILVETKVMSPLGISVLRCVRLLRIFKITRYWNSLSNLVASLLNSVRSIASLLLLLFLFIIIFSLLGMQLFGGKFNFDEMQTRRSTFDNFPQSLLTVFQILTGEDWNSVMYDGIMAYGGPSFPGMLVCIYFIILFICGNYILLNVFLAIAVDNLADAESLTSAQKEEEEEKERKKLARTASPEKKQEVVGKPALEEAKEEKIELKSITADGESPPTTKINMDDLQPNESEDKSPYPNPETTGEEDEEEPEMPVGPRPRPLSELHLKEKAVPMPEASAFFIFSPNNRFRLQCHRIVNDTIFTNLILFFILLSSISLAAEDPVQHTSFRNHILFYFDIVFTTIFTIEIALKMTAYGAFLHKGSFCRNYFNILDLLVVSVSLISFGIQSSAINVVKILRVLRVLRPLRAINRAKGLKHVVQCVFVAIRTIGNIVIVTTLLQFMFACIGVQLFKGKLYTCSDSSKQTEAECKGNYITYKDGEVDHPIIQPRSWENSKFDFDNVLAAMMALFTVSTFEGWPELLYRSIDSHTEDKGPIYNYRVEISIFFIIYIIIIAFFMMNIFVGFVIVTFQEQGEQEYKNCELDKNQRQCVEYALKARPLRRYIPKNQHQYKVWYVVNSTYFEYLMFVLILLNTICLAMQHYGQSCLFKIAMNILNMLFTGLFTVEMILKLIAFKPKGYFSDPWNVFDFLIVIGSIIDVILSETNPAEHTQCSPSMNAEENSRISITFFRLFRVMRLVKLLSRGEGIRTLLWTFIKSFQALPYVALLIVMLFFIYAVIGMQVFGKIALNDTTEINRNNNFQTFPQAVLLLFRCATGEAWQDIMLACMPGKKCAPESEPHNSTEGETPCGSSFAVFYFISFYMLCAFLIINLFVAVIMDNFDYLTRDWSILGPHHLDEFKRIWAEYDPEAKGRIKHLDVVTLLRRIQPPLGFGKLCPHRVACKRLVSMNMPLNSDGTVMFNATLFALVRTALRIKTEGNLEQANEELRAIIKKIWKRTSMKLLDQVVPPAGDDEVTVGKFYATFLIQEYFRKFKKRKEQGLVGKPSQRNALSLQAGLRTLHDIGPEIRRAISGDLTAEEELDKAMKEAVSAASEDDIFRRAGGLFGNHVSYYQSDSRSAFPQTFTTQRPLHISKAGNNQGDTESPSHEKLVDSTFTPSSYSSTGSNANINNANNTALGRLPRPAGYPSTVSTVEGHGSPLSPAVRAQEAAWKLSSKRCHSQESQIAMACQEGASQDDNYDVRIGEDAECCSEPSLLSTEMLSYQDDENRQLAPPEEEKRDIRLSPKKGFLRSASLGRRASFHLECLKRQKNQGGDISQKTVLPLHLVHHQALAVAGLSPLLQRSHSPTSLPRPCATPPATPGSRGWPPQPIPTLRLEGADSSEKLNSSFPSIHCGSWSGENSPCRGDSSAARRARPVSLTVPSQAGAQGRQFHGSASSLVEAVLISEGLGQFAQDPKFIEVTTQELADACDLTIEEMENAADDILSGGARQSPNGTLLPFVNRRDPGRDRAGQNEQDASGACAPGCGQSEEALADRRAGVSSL
T1 sequence (Q8VGC3 1-611 isoform Q8VGC3-4 partner): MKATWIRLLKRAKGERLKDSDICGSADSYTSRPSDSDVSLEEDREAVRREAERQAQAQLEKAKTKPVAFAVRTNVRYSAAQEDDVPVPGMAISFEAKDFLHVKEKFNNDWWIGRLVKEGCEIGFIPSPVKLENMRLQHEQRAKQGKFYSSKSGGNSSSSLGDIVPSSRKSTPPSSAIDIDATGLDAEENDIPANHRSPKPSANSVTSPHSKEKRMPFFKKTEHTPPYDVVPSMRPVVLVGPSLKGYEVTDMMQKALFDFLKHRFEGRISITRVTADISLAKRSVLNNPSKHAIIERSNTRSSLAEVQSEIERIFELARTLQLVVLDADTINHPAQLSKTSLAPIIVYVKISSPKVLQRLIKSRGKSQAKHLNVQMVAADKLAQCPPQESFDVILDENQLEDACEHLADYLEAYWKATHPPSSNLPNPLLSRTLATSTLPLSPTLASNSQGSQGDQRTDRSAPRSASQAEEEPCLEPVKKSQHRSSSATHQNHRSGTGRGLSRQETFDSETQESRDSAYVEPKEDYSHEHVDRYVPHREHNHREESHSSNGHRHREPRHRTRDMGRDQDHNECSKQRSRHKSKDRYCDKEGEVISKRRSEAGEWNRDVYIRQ

CaV2.2 channel, sequence (Q00975 whole entry, looked up): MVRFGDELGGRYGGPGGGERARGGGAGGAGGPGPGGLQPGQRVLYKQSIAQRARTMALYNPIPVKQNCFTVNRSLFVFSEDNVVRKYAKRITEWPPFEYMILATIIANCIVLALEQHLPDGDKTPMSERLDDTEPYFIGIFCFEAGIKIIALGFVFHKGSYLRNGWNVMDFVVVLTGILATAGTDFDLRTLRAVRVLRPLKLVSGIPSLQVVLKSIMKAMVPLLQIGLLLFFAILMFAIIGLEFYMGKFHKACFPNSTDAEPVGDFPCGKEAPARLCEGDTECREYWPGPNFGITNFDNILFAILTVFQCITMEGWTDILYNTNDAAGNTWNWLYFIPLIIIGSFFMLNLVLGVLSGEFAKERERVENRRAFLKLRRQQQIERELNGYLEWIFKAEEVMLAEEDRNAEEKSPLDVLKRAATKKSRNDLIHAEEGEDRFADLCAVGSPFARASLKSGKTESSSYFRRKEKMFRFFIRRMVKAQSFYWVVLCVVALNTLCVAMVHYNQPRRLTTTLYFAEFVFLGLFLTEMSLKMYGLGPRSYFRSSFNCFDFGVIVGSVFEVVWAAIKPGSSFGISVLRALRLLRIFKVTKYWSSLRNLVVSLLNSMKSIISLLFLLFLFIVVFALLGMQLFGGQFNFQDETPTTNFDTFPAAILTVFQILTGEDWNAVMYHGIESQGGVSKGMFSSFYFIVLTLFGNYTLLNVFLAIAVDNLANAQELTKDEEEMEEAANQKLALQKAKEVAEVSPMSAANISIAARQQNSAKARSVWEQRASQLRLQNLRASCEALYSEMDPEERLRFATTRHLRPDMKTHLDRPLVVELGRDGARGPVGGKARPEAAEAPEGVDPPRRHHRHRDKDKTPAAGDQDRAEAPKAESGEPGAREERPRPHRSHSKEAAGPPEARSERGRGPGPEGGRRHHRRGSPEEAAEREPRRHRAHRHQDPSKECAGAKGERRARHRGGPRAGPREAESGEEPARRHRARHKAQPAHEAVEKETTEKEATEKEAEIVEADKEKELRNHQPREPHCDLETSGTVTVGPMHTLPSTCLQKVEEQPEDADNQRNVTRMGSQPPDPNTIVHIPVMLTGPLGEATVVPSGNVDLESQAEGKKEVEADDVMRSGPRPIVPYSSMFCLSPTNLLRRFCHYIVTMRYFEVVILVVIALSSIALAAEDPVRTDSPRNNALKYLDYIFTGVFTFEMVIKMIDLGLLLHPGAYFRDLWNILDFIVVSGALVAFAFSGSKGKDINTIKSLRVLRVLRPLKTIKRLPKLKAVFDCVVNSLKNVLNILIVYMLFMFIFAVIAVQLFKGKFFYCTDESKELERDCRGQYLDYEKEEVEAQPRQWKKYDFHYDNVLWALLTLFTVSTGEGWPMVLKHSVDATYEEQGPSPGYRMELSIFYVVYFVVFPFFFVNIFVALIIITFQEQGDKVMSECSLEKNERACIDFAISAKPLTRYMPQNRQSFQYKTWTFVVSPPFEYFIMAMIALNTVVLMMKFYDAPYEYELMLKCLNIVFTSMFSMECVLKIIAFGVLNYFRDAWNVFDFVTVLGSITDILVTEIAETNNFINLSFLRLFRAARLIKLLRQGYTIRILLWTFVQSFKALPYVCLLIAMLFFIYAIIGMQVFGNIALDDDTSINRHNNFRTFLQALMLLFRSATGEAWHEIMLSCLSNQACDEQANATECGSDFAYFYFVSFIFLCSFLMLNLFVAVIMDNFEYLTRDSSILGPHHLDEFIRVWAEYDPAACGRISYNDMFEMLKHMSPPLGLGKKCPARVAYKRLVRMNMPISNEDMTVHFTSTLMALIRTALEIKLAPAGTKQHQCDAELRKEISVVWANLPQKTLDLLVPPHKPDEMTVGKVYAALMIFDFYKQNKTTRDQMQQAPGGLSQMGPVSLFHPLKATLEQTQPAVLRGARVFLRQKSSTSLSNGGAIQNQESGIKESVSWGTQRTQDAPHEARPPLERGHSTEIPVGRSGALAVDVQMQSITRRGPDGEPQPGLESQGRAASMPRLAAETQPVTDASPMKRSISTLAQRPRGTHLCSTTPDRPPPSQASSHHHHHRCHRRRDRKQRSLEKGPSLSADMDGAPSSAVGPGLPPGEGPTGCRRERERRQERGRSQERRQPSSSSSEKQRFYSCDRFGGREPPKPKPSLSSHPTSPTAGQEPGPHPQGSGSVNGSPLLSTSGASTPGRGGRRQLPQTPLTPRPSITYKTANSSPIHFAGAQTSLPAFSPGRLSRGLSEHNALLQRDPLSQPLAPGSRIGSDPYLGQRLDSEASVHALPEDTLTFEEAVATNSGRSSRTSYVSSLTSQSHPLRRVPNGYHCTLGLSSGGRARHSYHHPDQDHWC

Substance	change in voltage-dependent activation of the CaV2.2 channel (activation curve) (CaV2.2 channel)	effect on CaV2.2-mediated ion current (CaV2.2 channel)	reduction in the ion current at all tested voltages (current-to-voltage plot) (CaV2.2 channel)	voltage dependency of activation of the CaV1.2 channel (CaV1.2 channel)	effect on CaV1.2-mediated ion current (CaV1.2 channel; pulses -90 mV to +10 mV)	effect on CaV2.2-mediated ion currents (control blocker) (CaV2.2 channel)	reversibility of inhibition of CaV2.2 current (CaV2.2 channel)
ptlhthnrrrrr ([dP][dT][dL][dH][dT][dH][dN][dR][dR][dR][dR][dR]) [RD2]	not accompanied by a change in voltage-dependent activation of the channel	significant reduction in the ion current; also recorded: blocks the CaV2.2 channel	up to 55%	not affected	remained virtually unchanged; also recorded: insensitive	–	–
omega-conotoxin [reference compound]	–	–	–	–	–	interrupted	–
rprtrlhthrnr ([dR][dP][dR][dT][dR][dL][dH][dT][dH][dR][dN][dR]) [D3]	not accompanied by a change in voltage-dependent activation of the channel	significant reduction in the ion current; also recorded: blocks the CaV2.2 channel	up to 54%	–	–	–	reversible
